System: T1, OC[C@H]1O[C@@](CO)(O[C@H]2O[C@H](CO)[C@@H](O)[C@H](O)[C@H]2O)[C@@H](O)[C@@H]1O
T1 construct: Primers for the full length ORF of AtSWEET11 (AtSWT11FattB1 and AtSWT11attB2) or AtSWEET12; expressed in transfected cells; host or cells: Xenopus oocytes injected with capped cRNA from pOO2-GW
Assay: Oocyte uptake assay: [14C]-sucrose uptake in Xenopus oocytes expressing AtSWEET12
Assay type: cell-based, Arabidopsis
Settings: other: Xenopus oocytes; FIG. 1F

AtSWEET12 (Arabidopsis thaliana), sequence (chain, as listed by the source): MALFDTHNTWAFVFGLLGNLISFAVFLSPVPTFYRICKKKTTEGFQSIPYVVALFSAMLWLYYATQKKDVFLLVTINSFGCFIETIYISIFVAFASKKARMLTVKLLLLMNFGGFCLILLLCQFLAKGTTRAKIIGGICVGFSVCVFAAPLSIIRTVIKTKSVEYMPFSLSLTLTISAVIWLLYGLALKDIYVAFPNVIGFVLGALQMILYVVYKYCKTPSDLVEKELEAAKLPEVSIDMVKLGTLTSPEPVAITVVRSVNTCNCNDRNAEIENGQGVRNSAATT

Substance: AtSWEET12 (Arabidopsis thaliana)
- Km: 70 mM

From patent US20140359899A1
